Experimental data taken from patent publication US20250325672A1.

Key:
[1] = target: SARS-CoV-2 protein used in the SPR assay of Example 2 (not named); assay: SPR
[2] = target: Biotinylated 2019-nCoV (COVID-19) S1 protein (16-685), His, Avitag (SARS-CoV-2), P0DTC2; assay: SPR, Biacore T200, geomean

Row | Binder | pKD [1] | Kd [2]
1 | CVNKHNPVCRFYC (modifications not checked) [BCY16911] | 8 | 
2 | CIPLDWTCMIAC (modifications not checked) [BCY18707] |  | 2440 nM
